The results in this text go back to CN110954697A.

In assay [1] the target is 抗PD-1单链抗体与IgG4Fc片段融合蛋白 (anti-PD-1 scFv-IgG4 Fc fusion secreted by Meso3CAR-T-antiPD1 cells). The assay can be described thus: flow cytometry on Meso3CAR-T-antiPD1 cells; 2 μL PE-labelled anti-IgG4 Fc antibody, read directly (these cells also carry Meso3CAR with an IgG4 CH2CH3 hinge).
For assay [2] the target is unchanged. The assay can be described thus: flow cytometry on Meso3CAR-T-antiPD1 cells; 2 μL of 1 mg/mL biotin-labelled reagent, streptavidin-PE. Background: In flow cytometry, cells or beads pass a laser one at a time.

Sequence of 抗PD-1单链抗体与IgG4Fc片段融合蛋白 (anti-PD-1 scFv-IgG4 Fc fusion secreted by Meso3CAR-T-antiPD1 cells) (chain, as listed by the source): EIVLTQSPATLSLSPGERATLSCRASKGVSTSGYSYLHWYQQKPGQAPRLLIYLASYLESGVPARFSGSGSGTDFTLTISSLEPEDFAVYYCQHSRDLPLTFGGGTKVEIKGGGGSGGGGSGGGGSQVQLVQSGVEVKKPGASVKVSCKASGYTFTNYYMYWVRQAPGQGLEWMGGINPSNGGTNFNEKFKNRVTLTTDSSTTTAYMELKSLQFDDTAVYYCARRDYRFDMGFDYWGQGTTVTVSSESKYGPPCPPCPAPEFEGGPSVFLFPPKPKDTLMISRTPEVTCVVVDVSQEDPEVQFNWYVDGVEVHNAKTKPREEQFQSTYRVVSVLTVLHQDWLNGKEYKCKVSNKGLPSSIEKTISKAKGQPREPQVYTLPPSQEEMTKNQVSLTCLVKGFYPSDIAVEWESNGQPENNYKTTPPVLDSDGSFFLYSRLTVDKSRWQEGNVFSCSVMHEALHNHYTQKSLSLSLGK

“PE标记的抗IgG4Fc抗体 (PE-labelled anti-IgG4 Fc antibody), Abcam, 货号 ab99825” came in with a 阳性率 (percent positive cells) in assay [1] of 39.9%. As to “抗PD-1抗体的抗体 (antibody against the anti-PD-1 antibody), 金斯瑞 GenScript, 货号 A01853-40, biotin-labelled”, in assay [2], the 阳性细胞的比例 (percent positive cells) worked out at 31.6%.
